Source: publication PMC11187106

Target: CtBP2(WT) (human) (UniProt P56545)
Test: SEC; analytical Superose 6 3.2/300 GL, 50 mM HEPES (pH 7.2), 150 mM NaCl; CtBP kept at 100 µM, RAI2 variants titrated at ratios 1:0.1 to 1:2; proteins also run alone; assembly stoichiometries estimated from the elution volumes

stoichiometry N: 4
Substance: CtBP2(WT), P56545 1-445 (natural protein; other documents disagree on this pair)
